Assay results reported in PMC5829300.

Biological target: ^hexYME1^WB (^hexYME1 variant containing an E381Q Walker B mutant) (yeast) (UniProt P32795)
Assay: cryo-EM structure

- stoichiometry N: 6
Substance: ^hexYME1^WB (^hexYME1 variant containing an E381Q Walker B mutant) (from UniProt P32795 279-712) (enzyme)
